Reference: US8906844B2 (SYNTONIX PHARMACEUTICALS, dated 2014)
Like-named read-outs stand apart in the source and are kept apart here. Starred links: 1 amine or outer side, 2 acyl side, 3 side chain; linkers in the order of their positions; H or OH if unused. Positions of bridges follow the written chain, without caps; N, C: chain ends. Non-standard residues stand in square brackets, D forms with d. No end group written: not given here. X1 = 3(R)‑3‑amino‑2‑oxo‑1‑piperidine‑acetic acid, O=C1[C@H](N[*:1])CCCN1CC(=O)[*:2]; NMeL = CN[C@@H](CC(C)C)C(=O)O; Pen = CC(C)(S)[C@H](N)C(=O)O; NMeA = CN[C@@H](C)C(=O)O; Sar = CNCC(=O)O

Assays:
[1] = molecular target: T1, soluble human FcRn (shFcRn) (human, UniProt P55899 24-297; P61769 21-119, biotinylated with Sulfo-NHS-LC-Biotin in the ELISA; amine-coupled to a CM5 chip in SPR); test: SPR, pH 6; small-letter c (D-cysteine) at first Cys position, no Pen
T1 construct: also called biotinylated shFcRn
Experimental: (§1) The following steps were performed to cross-link soluble human or cynomolgus FcRn to the dextran surface of a CM5 sensor chip (Biacore AB, Uppsala, Sweden) by an amine coupling reaction involving 1-ethyl-(3-dimethylaminopropyl)-carbodiimide hydrochloride (EDC) (Biacore AB, Uppsala, Sweden) and N-hydroxysuccinimide (NHS) (Biacore AB, Uppsala, Sweden) as recommended by Biacore (BIAapplications Handbook, version AB, section 4.2, Biacore AB, Uppsala, Sweden). The FcRn protein was diluted in 50 mM sodium acetate, pH 4.5 (Biacore AB, Uppsala, Sweden) to a concentration of 10 to 30 µg/ml and used to coat one flow cell on the sensor chip. Residual sites on the FcRn flow cell were blocked with 1 M ethanolamine hydrochloride pH 8.5 (Biacore AB, Uppsala, Sweden). A control flow cell was blocked with ethanolamine for reference subtraction. For analysis of the monomeric peptides, FcRn was coated to a final density of 4000-5000 response units (RU). For analysis of the peptide dimers, FcRn was coated to a density of 2000-2500 RU. […]
(§2) A. Representative Procedure for the Determination of Binding Constant of Monomeric Peptides Ten 2-fold dilutions of the peptide were injected over the FcRn-CM5 chip at a rate of 20 µl/min for 2 min. […] Sensorgrams were generated and analyzed using BiaEval software version 3.1 (Biacore AB, Uppsala, Sweden). […]

[2] = molecular target: T1, soluble human FcRn (shFcRn); test: SPR, pH 6
Experimental: (§3) The following steps were performed to cross-link soluble human or cynomolgus FcRn to the dextran surface of a CM5 sensor chip (Biacore AB, Uppsala, Sweden) by an amine coupling reaction involving 1-ethyl-(3-dimethylaminopropyl)-carbodiimide hydrochloride (EDC) (Biacore AB, Uppsala, Sweden) and N-hydroxysuccinimide (NHS) (Biacore AB, Uppsala, Sweden) as recommended by Biacore (BIAapplications Handbook, version AB, section 4.2, Biacore AB, Uppsala, Sweden). The FcRn protein was diluted in 50 mM sodium acetate, pH 4.5 (Biacore AB, Uppsala, Sweden) to a concentration of 10 to 30 µg/ml and used to coat one flow cell on the sensor chip. Residual sites on the FcRn flow cell were blocked with 1 M ethanolamine hydrochloride pH 8.5 (Biacore AB, Uppsala, Sweden). A control flow cell was blocked with ethanolamine for reference subtraction. For analysis of the monomeric peptides, FcRn was coated to a final density of 4000-5000 response units (RU). For analysis of the peptide dimers, FcRn was coated to a density of 2000-2500 RU. All SPR measurements were performed using a BIACORE 3000 Instrument (Biacore AB Uppsala, Sweden). For measurements done at either pH 6 or pH 7.4, experiments were performed in 50 mM phosphate, 100 mM sodium chloride, 0.01% surfactant P20 (Biacore AB, Uppsala, Sweden).
(§4) A. Representative Procedure for the Determination of Binding Constant of Monomeric Peptides Ten 2-fold dilutions of the peptide were injected over the FcRn-CM5 chip at a rate of 20 µl/min for 2 min. The peptide was dissociated from the chip for 2.5 minutes with buffer. Any remaining peptide was removed from the chip with a 30 second injection of HBS-P buffer (Biacore AB, Uppsala, Sweden) at a rate of 30 µl/min. Sensorgrams were generated and analyzed using BiaEval software version 3.1 (Biacore AB, Uppsala, Sweden). The equilibrium RU observed for each injection was plotted against concentration. The equilibrium K_D values were derived by analysis of the plots using the steady state affinity model included in the BiaEval software.

[3] = molecular target: T1, soluble human FcRn (shFcRn); test: SPR, pH 7.4
Experimental: as §3, §4

[4] = molecular target: T1, soluble human FcRn (shFcRn); test: competition ELISA vs human IgG
Experimental: (§5) The wells were coated with 100 μl/well of 1 μg/ml biotinylated-shFcRn in Buffer A. The plate was sealed and incubated at 37° C. for 2 hours. Afterwards, the plate was washed with 200 μl/well of Buffer B (Buffer B: 100 mM MES pH 6, 150 mM NaCl, 0.5% BSA IgG-free (Jackson ImmunoResearch, West Grove, Pa.), 0.05% Tween-20). […] To allow for mixing, the plate was rocked for 2 minutes, sealed and incubated at 37° C. for 2 hours. […] The plate was covered, incubated for 30 minutes at room temperature and washed 4 times with 200 μl/well of ice-cold buffer B. SureBlue TMB substrate solution (100 μl/well, KPL, Gaithersburg, Md.) was added and the plate was allowed to incubate at room temperature until color developed, which took 5 to 10 minutes. Once color developed, 100 μl/well of TMB stop solution (KPL, Gaithersburg, Md.) was added and the absorbance was measured at 450 nm.

[5] = molecular target: T1, soluble human FcRn (shFcRn); test: SPR, pH 6; remark: listed apart in the source
Experimental: as §3, §4

[6] = molecular target: T1, soluble human FcRn (shFcRn); test: competition ELISA vs human IgG; remark: listed apart in the source
Experimental: as §5

[7] = molecular target: T1, soluble human FcRn (shFcRn); test: SPR, pH 7.4; remark: listed apart in the source
Experimental: as §1, §2

[8] = molecular target: T1, soluble human FcRn (shFcRn); test: SPR, pH 6; Tyr replaced by NMeTyr (N-methyl scan)
Experimental: as §1, §2

[9] = molecular target: T1, soluble human FcRn (shFcRn); test: competition ELISA vs human IgG; remark: listed apart in the source
Experimental: as §5

[10] = molecular target: T1, soluble human FcRn (shFcRn); test: competition ELISA vs human IgG; remark: listed apart in the source
[11] = molecular target: T1, soluble human FcRn (shFcRn); test: SPR, pH 6; remark: listed apart in the source
[12] = molecular target: T1, soluble human FcRn (shFcRn); test: SPR, pH 7.4

Row | Kd [2] | Kd [3] | IC50 [4] | Binder | also measured
1 | 4.2 µM | – | 49 µM | QRFVTGHFGXWYPINGP (D-Pro10; unbridged; C-terminal amide) [Peptide No. 190] | –
2 | 5.8 µM | 96 µM | 52 µM | QRFVTGHFGXWYPANGP (D-Pro10; unbridged; C-terminal amide) [Peptide No. 177] | –
3 | 0.046 µM | 0.23 µM | 0.42 µM | QRFXTGHFGXXYPCNGP (Pen4; Sar10; NMeLeu11; disulfide; C-terminal amide) [Peptide No. 187] | Kd [5]: 0.046 µM; IC50 [6]: 0.42 µM; Kd [7]: 0.23 µM
4 | 3.6 µM | – | 60 µM | RFVTGHFG[dP]WYPA-NH2 (N-terminus assumed; SMILES CC(C)[C@H](NC(=O)[C@H](Cc1ccccc1)NC(=O)[C@@H](N)CCCNC(=N)N)C(=O)N[C@H](C(=O)NCC(=O)N[C@@H](Cc1c[nH]cn1)C(=O)N[C@@H](Cc1ccccc1)C(=O)NCC(=O)N1CCC[C@@H]1C(=O)N[C@@H](Cc1c[nH]c2ccccc12)C(=O)N[C@@H](Cc1ccc(O)cc1)C(=O)N1CCC[C@H]1C(=O)N[C@@H](C)C(N)=O)[C@@H](C)O) [Peptide No. 246] | –
5 | – | 9 µM | 37 µM | RFVTGHFGXXYPA (Sar9; NMeLeu10; unbridged; C-terminal amide) [Peptide No. 236] | IC50 [9]: 37 µM
6 | 3.3 µM | – | – | RFXTGFFGXXYPC (Pen3; Sar9; NMeLeu10; disulfide; C-terminal amide) [Peptide No. 265] | Kd [12]: 4.2 µM
7 | 0.5 µM | – | 5.5 µM | RFXTGRFGXXYPC (Pen3; Sar9; NMeLeu10; disulfide; C-terminal amide) [Peptide No. 256] | Kd [12]: 0.5 µM
8 | 1.3 µM | – | 40 µM | RFXTGKFGXXYPC (Pen3; Sar9; NMeLeu10; disulfide; C-terminal amide) [Peptide No. 255] | Kd [12]: 1.1 µM

Continued, binder first:

Row | Binder | Kd [2] | Kd [3] | IC50 [4] | also measured
9 | QRFXTGHFGGLYPCNGP (D-Cys4; disulfide; C-terminal amide) [Peptide No. 29] | – | – | – | Kd [1]: 150 µM
10 | QRFXTGHFGXLYPCNGP (Pen4; D-His10; disulfide; C-terminal amide) [Peptide No. 42] | 2 µM | 20 µM | – | –
11 | QRFCTGHFXGLYPCNGP (D-Ala9; disulfide; C-terminal amide) [Peptide No. 22] | – | 137 µM | 48 µM | –
12 | QRFVTGHFGXLYPANGP (D-Pro10; unbridged; C-terminal amide) [Peptide No. 157] | 16 µM | – | 195 µM | –
13 | QRFCTGHFGXLYPCNGP (D-Ala10; disulfide; C-terminal amide) [Peptide No. 23] | – | 184 µM | – | –
14 | QRFXTGHFGGLXPCNGP (Pen4; NMeTyr12; disulfide; C-terminal amide) [Peptide No. 114] | – | – | – | Kd [8]: 92 µM
15 | QRF[Pen]TGHFG[dR]LYPCNGP-NH2 (disulfide 4-14; N-terminus assumed; SMILES CC(C)C[C@@H]1NC(=O)[C@@H](CCCNC(=N)N)NC(=O)CNC(=O)[C@H](Cc2ccccc2)NC(=O)[C@H](Cc2c[nH]cn2)NC(=O)CNC(=O)[C@H]([C@@H](C)O)NC(=O)[C@@H](NC(=O)[C@H](Cc2ccccc2)NC(=O)[C@H](CCCNC(=N)N)NC(=O)[C@@H](N)CCC(N)=O)C(C)(C)SSC[C@@H](C(=O)N[C@@H](CC(N)=O)C(=O)NCC(=O)N2CCC[C@H]2C(N)=O)NC(=O)[C@@H]2CCCN2C(=O)[C@H](Cc2ccc(O)cc2)NC1=O) [Peptide No. 41] | 0.83 µM | 8.8 µM | 8.1 µM | –
16 | RFXTGHFGGXYPCNGP (Pen3; NMeLeu10; disulfide; C-terminal amide) [Peptide No. 146] | 0.059 µM | 0.28 µM | 2.1 µM | –
17 | RF[Pen][NMeA]GHF[X1][NMeL]YPC-NH2 (disulfide 3-12 (inferred)) [Peptide No. 228] | – | – | – | IC50 [10]: 1.1 µM; Kd [11]: 0.145 µM
18 | QRFCTGHFXXLYPCNGP (D-Ala9; D-Ala10; disulfide; C-terminal amide) [Peptide No. 24] | 22 µM | > 250 µM | 69 µM | –
19 | QRFXTGHFXXXYPCNGP (Pen4; D-Ala9; Sar10; NMeLeu11; disulfide; C-terminal amide) [Peptide No. 188] | – | – | – | Kd [5]: 0.73 µM; IC50 [6]: 6.5 µM
20 | RF[Pen]TGHFG[Sar]YPCNGP-NH2 (disulfide 3-12; N-terminus assumed; SMILES C[C@@H](O)[C@@H]1NC(=O)[C@@H](NC(=O)[C@H](Cc2ccccc2)NC(=O)[C@@H](N)CCCNC(=N)N)C(C)(C)SSC[C@@H](C(=O)N[C@@H](CC(N)=O)C(=O)NCC(=O)N2CCC[C@H]2C(N)=O)NC(=O)[C@@H]2CCCN2C(=O)[C@H](Cc2ccc(O)cc2)NC(=O)CN(C)C(=O)CNC(=O)[C@H](Cc2ccccc2)NC(=O)[C@H](Cc2c[nH]cn2)NC(=O)CNC1=O, printed RF-Pen-TGHFG-Sar-YPCNGP (no Leu after Sar)) [Peptide No. 147] | 0.058 µM | 0.35 µM | 1 µM | –
21 | QRFXTGHFXGLYPCNGP (Pen4; D-Pro9; disulfide; C-terminal amide) [Peptide No. 48] | 0.79 µM | 21 µM | 5 µM | –
22 | RFXTGHFGXXYPC (Pen3; Sar9; NMeLeu10; disulfide; C-terminal amide) [Peptide No. 235] | 0.031 µM | 0.17 µM | 0.49 µM | Kd [5]: 0.031 µM; IC50 [6]: 0.49 µM; Kd [7]: 0.17 µM
23 | QRFXTGHFGXLYPCNGP (Pen4; D-Ile10; disulfide; C-terminal amide) [Peptide No. 43] | 2.2 µM | 41 µM | 18 µM | –
24 | QRFXTGHFXGLYPCNGP (Pen4; D-Asp9; disulfide; C-terminal amide) [Peptide No. 47] | 0.58 µM | 4.9 µM | – | –
